Data as given in US20110262454A1 (published 2011).

How the values were obtained:
[1] = target: T1, human CD38 on cells (human, UniProt P28907 1-300); experiment: cell-based or functional assay
[2] = target: T1, human CD38 on cells; experiment: apparent KD, FACS titration on Ramos cells, non-linear regression
[3] = target: T1, human CD38 on cells; experiment: FACS binding titration on Ramos cells
[4] = target: T1, human CD38 on cells; experiment: FACS binding on Ramos cells

Binder	ADCC EC50, Ramos target cells, human NK effector cells, LDH release [1]	CDC EC50, Raji-IMG cells, human complement 5% [1]	Kd [2]	apoptosis, Annexin V-positive Daudi cells after 24 h with 10 nM antibody [1]	apoptosis, Annexin V-positive MOLP-8 cells [1]	apoptosis, Annexin V-positive Ramos cells after subtraction of the non-treated control [1]	CDC, specific viability of Daudi cells at 1.25 µg/mL or higher with complement [1]	further results
38SB30 murine anti-CD38 monoclonal antibody (antibody, V domains shown, Murine hybridoma antibody; also called hybridoma PTA-7666) VH: QVQLQQSGPELVRPGASVKISCKTSGYAFSGSWMNWVKQRPGQGLEWIGRIYPGDGDIIYNGNFRDKVTLSADKSSNTAYMQLSSLTSVDSAVYFCSRWGTFTPSFDYWGQGTTLTVSS VL: DIVMTQSHKFLSTSVGDRVSITCKASQDVVTAVAWFQQKPGQSPKLLIYSASHRYTGVPDRFTGSGSGTDFTFTIISVQAEDLAVYYCQQHYTTPTTFGGGTKLDFRR	–	–	0.16 nM	> 30%	~50%	≥ 7%	–	–
38SB19 murine anti-CD38 monoclonal antibody (antibody, V domains shown, also called mu38SB19; murine 38SB19) VH: QVQLQQSGAELARPGTSVKLSCKASGYTFTDYWMQWVKQRPGQGLEWIGTIYPGDGDTGYAQKFKGKATLTADKSSKTVYMHLSSLASEDSAVYYCARGDYYGSNSLDYWGQGTSVTVSS VL: DIVMAQSHKFMSTSVGDRVSITCKASQDVSTVVAWYQQKPGQSPKRLIYSASYRYIGVPDRFTGSGSGTDFTFTISSVQAEDLAVYYCQQHYSPPYTFGGGTKLEIKR	–	–	0.12 nM	> 30%	~50%	≥ 7%	–	–
ch38SB13 chimeric anti-CD38 antibody (antibody, V domains shown) VH: QIQLVQSGPELKKPGETVKISCKASGYTLTSYGMNWVKQAPGKGLKWMGWINTYTGEPTYADDFKGRFAFSLETSASTAFLQINNLKNEDTATYFCVRRGFAYWGQGTLVTVSA VL: NIVLTQSPASLAVSLGQRATISCRASESVEIYGNGFMNWFQQKPGQPPKLLIYRASNLESGIPARFSGSGSRTEFTLTIDPVEADDVATYYCQQINEDPFTFGSGTKLEIKR	1.3 ng/mL	5 ng/mL	–	–	–	–	65%	–
ch38SB18 chimeric anti-CD38 antibody (antibody, V domains shown) VH: QIQLVQSGPELKKPGETVKISCKASGYTFTNSGMNWVKQAPGKGLKWMGWINTYTGEPTYADDFKGRFAFSLETSASSAYLQISNLKNEDTATYFCARRGFVYWGQGTLVTVSA VL: DIVLTQSPASLAVSLGQRATISCRASESVAIYGNSFLKWFQQKPGQPPKLLIYRASNLESGIPARFSGSGSGTDFTLTINPVEADDVATYYCQQINEDPYTFGGGTKLEIKR	1.3 ng/mL	10.1 ng/mL	–	–	–	–	85%	ADCC EC50, LP-1 multiple myeloma cells [1]: 0.56 ng/mL; CDC EC50, LP-1 multiple myeloma cells [1]: 32 ng/mL
38SB13 murine anti-CD38 monoclonal antibody (antibody, V domains shown, Murine hybridoma antibody purified by Protein A or G; also called hybridoma PTA-7667) VH: QIQLVQSGPELKKPGETVKISCKASGYTLTSYGMNWVKQAPGKGLKWMGWINTYTGEPTYADDFKGRFAFSLETSASTAFLQINNLKNEDTATYFCVRRGFAYWGQGTLVTVSA VL: NIVLTQSPASLAVSLGQRATISCRASESVEIYGNGFMNWFQQKPGQPPKLLIYRASNLESGIPARFSGSGSRTEFTLTIDPVEADDVATYYCQQINEDPFTFGSGTKLEIKR	–	–	0.1 nM	> 30%	~50%	≥ 7%	–	–
38SB18 murine anti-CD38 monoclonal antibody (antibody, V domains shown, Murine hybridoma antibody; also called hybridoma PTA-7669) VH: QIQLVQSGPELKKPGETVKISCKASGYTFTNSGMNWVKQAPGKGLKWMGWINTYTGEPTYADDFKGRFAFSLETSASSAYLQISNLKNEDTATYFCARRGFVYWGQGTLVTVSA VL: DIVLTQSPASLAVSLGQRATISCRASESVAIYGNSFLKWFQQKPGQPPKLLIYRASNLESGIPARFSGSGSGTDFTLTINPVEADDVATYYCQQINEDPYTFGGGTKLEIKR	–	–	0.1 nM	> 30%	~50%	≥ 7%	–	–
hu38SB31 v1.1 humanized anti-CD38 antibody (antibody, V domains shown) VH: EVQLVESGGGLVKPGGSLRLSCEASGFTFSSYTLSWVRQTPGKGLEWVATISIGGRYTYYPDSVKGRFTISRDNAKNTLYLQMNSLKSEDTAMYYCTRDFNGYSDFWGQGTTLTVSS VL: DTVMTQSPSTISTSVGDRVSITCKASQVVGSAVAWYQQKPGQSPKLLIYWASTRHTGVPDRFTGSGSGTDFTLTISNVQSDDLADYFCQQYNSYPYTFGGGTKLEIKR	–	–	–	–	–	–	–	Kd [4]: 0.13 nM
hu38SB31 v1.2 humanized anti-CD38 antibody (antibody, V domains shown) VH: EVQLVESGGGLVKPGGSLRLSCEASGFTFSSYTLSWVRQTPGKGLEWVATISIGGRYTYYPDSVKGRFTISRDNAKNTLYLQMNSLKSEDTAMYYCTRDFNGYSDFWGQGTTLTVSS VL: DTVMTQSPSSISTSIGDRVSITCKASQVVGSAVAWYQQKPGQSPKLLIYWASTRHTGVPARFTGSGSGTDFTLTISNVQSEDLADYFCQQYNSYPYTFGGGTKLEIKR	–	–	–	–	–	–	–	Kd [4]: 0.11 nM
38SB31 murine anti-CD38 monoclonal antibody (antibody, V domains shown, Murine hybridoma antibody; also called hybridoma PTA-7668) VH: DVKLVESGGGLVKPGGSLKLSCEASGFTFSSYTLSWVRQTPETRLEWVATISIGGRYTYYPDSVEGRFTISRDNAKNTLYLQMNSLKSEDTAMYYCTRDFNGYSDFWGQGTTLTVSS VL: DTVMTQSHKFISTSVGDRVSITCKASQVVGSAVAWYQQKPGQSPKLLIYWASTRHTGVPDRFTGSGSGTDFTLTISNVQSEDLADYFCQQYNSYPYTFGGGTKLEIKR	–	–	0.11 nM	> 30%	~50%	≥ 7%	–	–
38SB39 murine anti-CD38 monoclonal antibody (antibody, V domains shown, Murine hybridoma antibody; also called hybridoma PTA-7671) VH: NVQLVESGGGLVQPGGSRKLSCAASGFTFSNFGMHWVRQAPEKGLEWVAYIRSGSGTIYYSDTVKGRFTISRDNPKNTLFLQMTSLRSEDTAMYYCARSYYDFGAWFAYWGQGTLVTVSA VL: DIVMTQSQKFMSTSVGDRVSVTCKASQNVGTNVAWYQHKPGQSPKIMIYSASSRYSGVPDRFTGSGSGTLFTLTINNVQSEDLAEYFCQQYNSYPLTFGSGTKLEIKR	–	–	3.03 nM	> 30%	~50%	≥ 7%	–	–

Second part, led by results:

ADCC EC50, Ramos target cells, human NK effector cells, LDH release [1]	CDC EC50, Raji-IMG cells, human complement 5% [1]	Kd [2]	apoptosis, Annexin V-positive Daudi cells after 24 h with 10 nM antibody [1]	apoptosis, Annexin V-positive MOLP-8 cells [1]	apoptosis, Annexin V-positive Ramos cells after subtraction of the non-treated control [1]	Binder	CDC, specific viability of Daudi cells at 1.25 µg/mL or higher with complement [1]	further results
2.2 ng/mL	20 ng/mL	–	–	–	–	ch38SB30 chimeric anti-CD38 antibody (antibody, V domains shown) VH: QVQLQQSGPELVRPGASVKISCKTSGYAFSGSWMNWVKQRPGQGLEWIGRIYPGDGDIIYNGNFRDKVTLSADKSSNTAYMQLSSLTSVDSAVYFCSRWGTFTPSFDYWGQGTTLTVSS VL: DIVMTQSHKFLSTSVGDRVSITCKASQDVVTAVAWFQQKPGQSPKLLIYSASHRYTGVPDRFTGSGSGTDFTFTIISVQAEDLAVYYCQQHYTTPTTFGGGTKLDFRR	45%	–
1.8 ng/mL	28 ng/mL	–	–	–	–	ch38SB19 chimeric anti-CD38 antibody (antibody, V domains shown, also called chimeric 38SB19) VH: QVQLQQSGAELARPGTSVKLSCKASGYTFTDYWMQWVKQRPGQGLEWIGTIYPGDGDTGYAQKFKGKATLTADKSSKTVYMHLSSLASEDSAVYYCARGDYYGSNSLDYWGQGTSVTVSS VL: DIVMAQSHKFMSTSVGDRVSITCKASQDVSTVVAWYQQKPGQSPKRLIYSASYRYIGVPDRFTGSGSGTDFTFTISSVQAEDLAVYYCQQHYSPPYTFGGGTKLEIKR	–	Kd [3]: 0.18 nM; ADCC EC50, LP-1 multiple myeloma cells [1]: 0.34 ng/mL; CDC EC50, LP-1 multiple myeloma cells [1]: 30 ng/mL
1.2 ng/mL	10 ng/mL	–	–	–	–	ch38SB31 chimeric anti-CD38 antibody (antibody, V domains shown, also called chimeric 38SB31) VH: DVKLVESGGGLVKPGGSLKLSCEASGFTFSSYTLSWVRQTPETRLEWVATISIGGRYTYYPDSVEGRFTISRDNAKNTLYLQMNSLKSEDTAMYYCTRDFNGYSDFWGQGTTLTVSS VL: DTVMTQSHKFISTSVGDRVSITCKASQVVGSAVAWYQQKPGQSPKLLIYWASTRHTGVPDRFTGSGSGTDFTLTISNVQSEDLADYFCQQYNSYPYTFGGGTKLEIKR	53%	Kd [4]: 0.12 nM; ADCC EC50, LP-1 multiple myeloma cells [1]: 0.24 ng/mL; CDC EC50, LP-1 multiple myeloma cells [1]: 43 ng/mL
113 ng/mL	400 ng/mL	–	–	–	–	ch38SB39 chimeric anti-CD38 antibody (antibody, V domains shown) VH: NVQLVESGGGLVQPGGSRKLSCAASGFTFSNFGMHWVRQAPEKGLEWVAYIRSGSGTIYYSDTVKGRFTISRDNPKNTLFLQMTSLRSEDTAMYYCARSYYDFGAWFAYWGQGTLVTVSA VL: DIVMTQSQKFMSTSVGDRVSVTCKASQNVGTNVAWYQHKPGQSPKIMIYSASSRYSGVPDRFTGSGSGTLFTLTINNVQSEDLAEYFCQQYNSYPLTFGSGTKLEIKR	91%	–
